The values that follow come from publication PMC13227277, “Targeting CIRP and IL-6R-mediated microglial inflammation to improve outcomes in intracerebral hemorrhage” (Journal of Advanced Research, 2025).

Assay [1] concerns the target T1, recombinant human IL-6 receptor alpha (IL-6Rα) (human, UniProt P08887 20-365).
T1 construct: Interleukin-6 receptor subunit alpha, human; UniProtKB P08887 is printed for the docking; also called rhIL-6Rα; rhIL-6R; source: recombinant
T1 sequence (looked up): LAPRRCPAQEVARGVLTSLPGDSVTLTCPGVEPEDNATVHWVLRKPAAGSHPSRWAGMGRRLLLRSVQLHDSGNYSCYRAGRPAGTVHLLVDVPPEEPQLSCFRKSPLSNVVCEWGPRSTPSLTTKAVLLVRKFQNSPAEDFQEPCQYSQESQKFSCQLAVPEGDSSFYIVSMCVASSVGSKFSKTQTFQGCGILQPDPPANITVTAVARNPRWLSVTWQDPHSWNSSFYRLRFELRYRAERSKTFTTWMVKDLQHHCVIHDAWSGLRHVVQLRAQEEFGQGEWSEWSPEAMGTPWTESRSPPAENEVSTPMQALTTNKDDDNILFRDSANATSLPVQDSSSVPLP
The assay can be described thus: SPR; competitive inhibition: IL-6Rα on a CM5 chip saturated with TCC (100 times its affinity constant; 1.5 μg/mL), then CIRBP as analyte. The note with it: both partners purified. On the technique in general: Surface plasmon resonance follows binding to a sensor surface in real time, without labels.

The next assay concerns neurons. Kind of assay: Neurons co-cultured with CIRP-treated microglial supernatant (CCK-8, immunofluorescence). Type of assay: cell-based, mouse. The procedure:
Brain tissues were fixed in paraformaldehyde, dehydrated, and sectioned at 30 µm using a microtome (CM1900UV, Leica, Germany). Sections were floated onto glass slides and left overnight at room temperature. For cultured cells, after discarding the medium, cells were washed twice with PBS, fixed with precooled 4 % PFA at 4 °C for 10 min, and washed three times with PBS (10 min each) on a shaker. Cells were permeabilized with 0.3 % Triton X-100 in PBS for 20 min, blocked with 5 % donkey serum for 1 h, and incubated overnight at 4 °C with primary antibodies (Iba-1, Rabbit polyclonal, Wako; NeuN, Millipore; GFAP, CST; MBP, Abcam; SMI32, Millipore). The next day, sections were brought to room temperature, washed three times with PBST (PBS + Tween-20), and incubated with secondary antibodies for 1 h in the dark. […] Fluorescence was visualized using a DM4000B microscope and images were captured with a Leica TCS SP8 confocal microscope. […]
To mimic ischemic conditions, neurons at DIV7 were subjected to OGD. […] The supernatants were collected for subsequent CIRP quantification. […]
Microglia were exposed to 1, 10 100 μM concentrations of TCC or TC and PBS respectively for 24 h, and cell viability was measured. […] Cell viability was assessed using the Cell Counting Kit-8 (C0038, Beyotime) according to the manufacturer’s protocol. Absorbance at 450 nm was measured to determine cell viability.

The next assay concerns IL-6R. The assay can be described thus: Co-immunoprecipitation of CIRP and IL-6R. It counts as binding. Conditions: Co-IP, n = 3.
The next assay relates to IL-6Rα. The note with it: macrophages; cited from earlier work. The source says:
Previous studies have shown that MD2 binds to a specific 15-amino acid segment of CIRP with high affinity, promoting inflammation. To target this interaction, we designed the peptides TCC and TC using macromolecular docking techniques, with SPR confirming that TCC reduced the binding affinity of CIRP to IL-6Rα.

Another assay has as its system microglia. The assay can be described thus: Microglial phagocytosis of CFSE-labeled RBCs. Type of assay: cell-based, mouse. Conditions: CFSE-labeled erythrocytes 10:1, 4 h; TCC pretreatment then CIRP; n = 6. The source says: Primary cortical neurons were isolated from embryonic day 16–18 (E16–E18) C57BL/6 mouse embryos as previously described, and cultured in Neurobasal medium supplemented with B27 and GlutaMAX (Gibco).Primary microglial cells were isolated from the cortices of neonatal (day 1) C57BL/6J mice. After disinfection with 75 % ethanol, the skin and skull were removed, and the brains were placed in ice-cold HBSS. The meninges were peeled off, the cortex was collected, and the hippocampus was discarded. Tissues were digested with 0.25 % trypsin at 37 °C for 12 min, centrifuged at 1200 rpm for 5 min, and resuspended in complete medium. The suspension was transferred to a T75 flask with 15 mL of complete medium. After 14 days, microglial cells were harvested by shaking the flask at 270–280 rpm for 30 min, and the supernatant was collected. […]
The functional characteristics of microglial cells encompass not only the release of inflammatory cytokines but also their phagocytic activity. […] RBCs were labeled with either 0.5 μM or 5 μM CFSE, and immunofluorescence analysis determined that 5 μM CFSE was the optimal concentration for labeling (Fig. 7G). […]
RBCs were isolated via density gradient centrifugation and labeled with CFSE before being stereotactically injected into the right striatum. […] Cell viability was assessed using a Fixable Viability Dye, and flow cytometric analysis was subsequently performed. […]

The target of assay [2] is T1, recombinant human IL-6 receptor alpha …. Kind of assay: SPR; human IL-6Rα immobilised on a CM5 chip; human CIRBP or TCC as analyte. The note with it: both partners purified.

B1: recombinant human CIRP (cold-inducible RNA-binding protein) (natural protein, UniProt Q14011 1-172, looked up)
chain: MASDEGKLFVGGLSFDTNEQSLEQVFSKYGQISEVVVVKDRETQRSRGFGFVTFENIDDAKDAMMAMNGKSVDGRQIRVDQAGKSSDNRSRGYRGGSAGGRGFFRGGRGRGRGFSRGGGDRGYGGNRFESRSGGYGGSRDYYSSRSQSGGYSDRSSGGSYRDSYDSYATHNE
notes: UniProtKB Q14011 is printed for the docking; also called rhCIRP; human CIRBP; source: recombinant
Consider B1, for which the “KD in the presence of the competitor TCC (1.5 μg/mL)” value in assay [1] is 17.7 nM. For the same molecule, the “neuronal morphology and axonal integrity” value in the assay on neurons (24-hour co-culture with microglial supernatant, immunofluorescence, n = 4–6) was “altered morphology and reduced axonal integrity”. In addition, the neuronal viability result in the assay with neurons (microglial supernatant following CIRP with or without TCC, CCK-8, 24 h, n = 3) is “impaired neuronal viability”. For the same molecule, in the assay on IL-6R, the “interaction between CIRP and IL-6R” value was “confirmed a interaction between CIRP and IL-6R”. The “IL-6Rα as receptor for CIRP” value in the assay on IL-6Rα is on record as “high-affinity receptor for CIRP in macrophages”. The “microglial phagocytosis of RBCs” value with microglia was “significantly reduced in the CIRP group compared to the PBS group”. The Kd in assay [2] was determined as 4.27 nM.

What is called Kd is the equilibrium constant for the complex coming apart.
